Measurements: patent US20120225065A1 (published 2012)

Molecular target: Recombinant human IL-21 (human, UniProt Q9HBE4 25-162)
Test: cell-based or functional assay

Recombinant human IL-21, sequence (Q9HBE4 25-162 limits assumed): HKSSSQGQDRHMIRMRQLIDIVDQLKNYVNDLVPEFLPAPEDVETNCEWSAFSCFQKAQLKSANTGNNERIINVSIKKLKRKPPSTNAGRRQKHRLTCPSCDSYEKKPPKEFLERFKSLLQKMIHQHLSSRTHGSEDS

B1: Heterodimeric IL-21 soluble receptor IL-21R/γc-Fc (Fc fusion, not shown: a dimerising Fc or GST)
chain 1: not shown
chain 2: LNTTILTPNGNEDTTADFFLTTMPTDSLSVSTLPLPEVQCFVFNVEYMNCTWNSSSEPQPTNLTLHYWYKNSDNDKVQKCSHYLFSEEITSGCQLQKKEIHLYQTFVVQLQDPREPRRQATQMLKLQNLVIPWAPENLTLHKLSESQLELNWNNRFLNHCLEHLVQYRTDWDHSWTEQSVDYRHKFSLPSVDGQKRYTFRVRSRFNPLCGSAQHWSEWSHPIHWGSNTSKENPFLFALEA
  % IgD-low, CD138+ Plasma Cells at antagonist:ligand ratio 0.16:1: 66.7%
  % IgD-low, CD138+ Plasma Cells at antagonist:ligand ratio 0.6:1: 54.2%
  % IgD-low, CD138+ Plasma Cells at antagonist:ligand ratio 2.5:1: 41.7%
  % IgD-low, CD138+ Plasma Cells at antagonist:ligand ratio 10:1: 23.4%

B2: Human anti-human IL-21 monoclonal antibody clone 366.552.11 (antibody, V domains shown)
VH: QVQLQESGPGLVKPSETLSLTCTVSGGSISSDFWGWIRQPPGKGLEWIGYISSRGSTNYNPSLKRRVTISVDTSRNQFSLKLSSVTAADTAVYYCARSAGVTDFDFWGQGTLVTVSS
VL: DIQMTQSPSSVSASVGDRVTITCRASQGISSWLAWYQHKPGKAPKLLIYVASSLQSGVPSRFSGSGSGTDFTLTISSLQPEDFATYYCQQANSFPLTFGGGTKVEIK
  % IgD-low, CD138+ Plasma Cells at antagonist:ligand ratio 0.16:1 (actual 0.22:1): 50.3%
  % IgD-low, CD138+ Plasma Cells at antagonist:ligand ratio 0.6:1 (actual 0.9:1): 44.8%
  % IgD-low, CD138+ Plasma Cells at antagonist:ligand ratio 2.5:1 (actual 3.6:1): 26.4%
  % IgD-low, CD138+ Plasma Cells at antagonist:ligand ratio 10:1 (actual 14.4:1): 15.4%

B3: Human anti-human IL-21 monoclonal antibody clone 366.328.10 (antibody, V domains shown)
VH: EVQLVESGGGLVKPGGSLRLSCAASGFIFSSYSMNWVRQAPGKGLEWVSSITSGSYYIHYADSVKGRFTISRDNAKNSLYLQMNSLRAEDTAVYYCVRERGWGYYGMDVWGQGTTVTVSS
VL: AIQLTQSPSSLSASVGDRVTITCRASQDIDSALAWYQQKPGKAPKILIHDASSLESGVPSRFSGSGSGTDFTLTISSLQPEDFATYYCQQFNSYPYTFGQGTKLEIK
  % IgD-low, CD138+ Plasma Cells at antagonist:ligand ratio 0.16:1: 52.1%
  % IgD-low, CD138+ Plasma Cells at antagonist:ligand ratio 0.6:1: 41.4%
  % IgD-low, CD138+ Plasma Cells at antagonist:ligand ratio 2.5:1: 20.2%
  % IgD-low, CD138+ Plasma Cells at antagonist:ligand ratio 10:1: 15.4%
